Laboratory results taken from US20030044914A1 (SALK INSTITUTE FOR BIOLOGICAL STUDIES, published 2003).

How the values were obtained:
hRARα = biological target: T1, hRARα (human, UniProt P10276 1-462); experiment: in vitro DNA-binding (gel shift) with in vitro translated proteins and a cocktail of response elements
T1 construct: also called human RAR alpha
T1 sequence (looked up): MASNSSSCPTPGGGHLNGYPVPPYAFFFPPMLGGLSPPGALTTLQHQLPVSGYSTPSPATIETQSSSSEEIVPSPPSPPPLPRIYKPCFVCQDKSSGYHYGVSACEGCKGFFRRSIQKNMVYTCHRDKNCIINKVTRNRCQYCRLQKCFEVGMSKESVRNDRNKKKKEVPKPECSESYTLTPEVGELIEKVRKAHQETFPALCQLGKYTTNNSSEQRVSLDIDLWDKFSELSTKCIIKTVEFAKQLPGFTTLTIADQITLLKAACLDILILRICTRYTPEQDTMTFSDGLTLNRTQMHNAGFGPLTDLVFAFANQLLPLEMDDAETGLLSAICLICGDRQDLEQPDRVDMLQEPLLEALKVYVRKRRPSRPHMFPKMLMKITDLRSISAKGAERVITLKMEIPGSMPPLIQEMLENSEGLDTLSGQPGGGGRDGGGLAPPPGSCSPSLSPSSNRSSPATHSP

hRXRα = biological target: T2, hRXRα (human, UniProt P19793 1-462); experiment: in vitro DNA-binding (gel shift) with in vitro translated proteins
T2 construct: In vitro transcribed and translated protein used in gel shift assays with XOR-6; also called human RXR alpha
T2 sequence (looked up): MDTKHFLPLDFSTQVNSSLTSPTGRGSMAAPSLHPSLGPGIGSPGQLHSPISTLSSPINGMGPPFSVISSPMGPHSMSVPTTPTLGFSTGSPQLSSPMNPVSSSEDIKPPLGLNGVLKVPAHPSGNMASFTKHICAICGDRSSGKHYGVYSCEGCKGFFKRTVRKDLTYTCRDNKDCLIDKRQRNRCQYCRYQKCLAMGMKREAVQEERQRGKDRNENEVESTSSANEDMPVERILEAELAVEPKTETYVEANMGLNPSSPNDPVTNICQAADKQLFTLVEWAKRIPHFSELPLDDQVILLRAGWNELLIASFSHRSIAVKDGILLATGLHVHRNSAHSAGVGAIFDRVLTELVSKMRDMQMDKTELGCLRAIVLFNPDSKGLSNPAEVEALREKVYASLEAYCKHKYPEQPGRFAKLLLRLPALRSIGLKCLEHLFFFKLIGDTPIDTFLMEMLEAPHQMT
Procedure: DNA-binding analysis was performed using in vitro transcribed, translated proteins (Perlmann et al., 1993, supra. oligonucleotides employed have been described previously (see Umesono et al., in Cell 65:1255-1266 (1990) and Perlmann et al., 1993, supra).
Thus, in vitro transcribed and translated proteins were mixed with a cocktail of hormone response elements containing DR0, DR1, PPRE, DR2, MLV-TRE, SPP1, and β-RARE. Thus, XOR-6 and hRXRα proteins were mixed and incubated with radiolabelled response elements. DR-1 through 5 are direct repeats of the sequence […] separated by 1-5 nucleotides. Reaction conditions and gel electrophoresis employed were as described by Perlmann et al., 1993, supra.

binding result (hRARα): no binding
binding result (hRXRα): binds
B1: XOR-6 (Xenopus Orphan Receptor 6) (receptor)
chain: MWKVQETLVLEEEEEEEDASNSCGTGEDEDDGDPKICRACGDRATGYHFNAMTCEGCKGFFRRAVKRNLRLSCPFQNSCVINKSNRRHCQACRLKKCLDIGMRKELIMSDAAVEQRRALIKRKHKLTKLPPTPPGASLTPEQQHFLTQLVGAHTKTFDFNFTFSKNFRPIRRSSDPTQEPQATSSEAFLMLPHISDLVTYMIKGIISFAKMLPYFKSLDIEDQIALLKGSVAEVSVIRFNTVFNSDTNTWECGPFTYDTEDMFLAGFRQLFLEPLVRIHRMMRKLNVQSEEYAMMAALSIFASYRPGVCDWEKIQKLQEHIALTLKDFIDSQRPPSPQNRLLYPKIMECLTELRTVNDIHSKQLLEIWDIQPDATPLMREVFGSPE
notes: Expressed from pCDG-XOR6 (XOR-6 protein coding region) in CV-1 cells; Full-length, about 386 amino acids; also called full-length XOR-6
